Data on 17 molecules can be found in paper PMC11417369, “DNA sequence and chromatin differentiate sequence-specific transcription factor binding in the human malaria parasite Plasmodium falciparum”.

B1: CACACA_negctrl_site788 (dsDNA)
DNA 1: GTATATATCTAAAAATATATATATATATATATATAT
DNA 2: ATATATATATATATATATATATTTTTAGATATATAC
B2: CACACA_negctrl_site401 (dsDNA)
DNA 1: TGTTAATATATCATTATGTTATAGGTTCAGCTGGGA
DNA 2: TCCCAGCTGAACCTATAACATAATGATATATTAACA
B3: CACACA_negctrl_site1204 (dsDNA)
DNA 1: ATTTTTTTTTTTTTTTTTCATTTTTTTTTTTTTTTT
DNA 2: AAAAAAAAAAAAAAAATGAAAAAAAAAAAAAAAAAT
B4: CACACA_negctrl_site485 (dsDNA)
DNA 1: AAAGTGGCCATATATTTTTTTTTTTTTTTCCTTATT
DNA 2: AATAAGGAAAAAAAAAAAAAAATATATGGCCACTTT
B5: CACACA_negctrl_site1085 (dsDNA)
DNA 1: TATATTCAAAAAAATTCATTTCTGATTTTTTTTTTT
DNA 2: AAAAAAAAAAATCAGAAATGAATTTTTTTGAATATA
B6: CACACA_negctrl_site828 (dsDNA)
DNA 1: ATATATATATATGTTTATTTATTTGAACGATTGTGG
DNA 2: CCACAATCGTTCAAATAAATAAACATATATATATAT
B7: CACACA_negctrl_site76 (dsDNA)
DNA 1: TAAATGTGAAATTTTATATTTTATATAATATACAAT
DNA 2: ATTGTATATTATATAAAATATAAAATTTCACATTTA
B8: CACACA_negctrl_site577 (dsDNA)
DNA 1: TCATATTATAAATAAATAAATAAATATATATATATA
DNA 2: TATATATATATATTTATTTATTTATTTATAATATGA
B9: CACACA_negctrl_site1687 (dsDNA)
DNA 1: TATTGATAATTTTATATATACATACATAAATAAATA
DNA 2: TATTTATTTATGTATGTATATATAAAATTATCAATA
B10: CACACA_negctrl_site437 (dsDNA)
DNA 1: ATTATATTAATATATATATATATATATATAATAATA
DNA 2: TATTATTATATATATATATATATATATTAATATAAT
B11: CACACA_negctrl_site1471 (dsDNA)
DNA 1: TGGATTTTTTGATTTTTGTTTTTCTTCTTTCCCCCC
DNA 2: GGGGGGAAAGAAGAAAAACAAAAATCAAAAAATCCA
B12: CACACA_negctrl_site1109 (dsDNA)
DNA 1: TATATATCTGTGAAAATACTTAAATTGTTATAAAAA
DNA 2: TTTTTATAACAATTTAAGTATTTTCACAGATATATA
B13: CACACA_negctrl_site481 (dsDNA)
DNA 1: TGACTTTTTTTTTTTTTTTTTTTTTTTTATCTTTTT
DNA 2: AAAAAGATAAAAAAAAAAAAAAAAAAAAAAAAGTCA
B14: CACACA_negctrl_site313 (dsDNA)
DNA 1: ATAAACAAACATAAATCTGATTTTAATTTTTTTAAG
DNA 2: CTTAAAAAAATTAAAATCAGATTTATGTTTGTTTAT
B15: CACACA_negctrl_site386 (dsDNA)
DNA 1: TCTTACAAGGAACTAATAAAATTGTAGTTTGTATTT
DNA 2: AAATACAAACTACAATTTTATTAGTTCCTTGTAAGA
B16: CACACA_negctrl_site1773 (dsDNA)
DNA 1: TGGTTATTTATCTTTATTATAAATATTTACAAATAA
DNA 2: TTATTTGTAAATATTTATAATAAAGATAAATAACCA
B17: CACACA_negctrl_site1459 (dsDNA)
DNA 1: AAAAATATATATATATTTCTTCTTTGTTAAAATGTA
DNA 2: TACATTTTAACAAAGAAGAAATATATATATATTTTT

This data set addresses T1, AP2-HC D1 (Plasmodium falciparum, UniProt Q8IKR9 1316-1374).
T1 sequence: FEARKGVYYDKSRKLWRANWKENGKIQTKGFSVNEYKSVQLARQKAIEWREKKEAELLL
Put plainly: gcPBM; about 25 ug protein; PBS, 1% milk, 0.2 mg/ml BSA, salmon testes DNA, 0.03% Triton X-100. To be noted: tags: N-terminal GST (pGEX-4T-1), kept; label: surface-attached array probe.
Turning to B1, the binding signal is 9.43 ln median PBM intensity, better of two orientations. B2: the binding signal is 9.41 ln median PBM intensity, better of two orientations.

Regarding B3, the binding signal is 9.43 ln median PBM intensity, better of two orientations. Next, B4: 9.44 ln median PBM intensity, better of two orientations; B5: 9.44 ln median PBM intensity, better of two orientations. Turning to B6, the binding signal is 9.44 ln median PBM intensity, better of two orientations. As for B7, the binding signal was 9.39 ln median PBM intensity, better of two orientations. On to B8, for which the binding signal was 9.41 ln median PBM intensity, better of two orientations. For the molecule B9, the binding signal is 9.44 ln median PBM intensity, better of two orientations. As to B10, the binding signal was 9.4 ln median PBM intensity, better of two orientations. B11: the binding signal is 9.4 ln median PBM intensity, better of two orientations. Next, B12: 9.44 ln median PBM intensity, better of two orientations. Next, B13: 9.43 ln median PBM intensity, better of two orientations; B14: 9.42 ln median PBM intensity, better of two orientations; B15: 9.42 ln median PBM intensity, better of two orientations. As for B16, the binding signal is 9.44 ln median PBM intensity, better of two orientations. Under B17 stands 9.42 ln median PBM intensity, better of two orientations.
